Assay [1] concerns the target BG505 SOSIP.664 gp140 trimer (HIV-1 (clade A, strain BG505)) (UniProt Q2N0S6). In words: native gel or EMSA.
The target is the same in assay [2]. In words: SEC. A general note: SEC sorts molecules by how far they enter the pores of the column.
Assay [3] deals with BG505 UFO gp140 trimer (HIV-1 (clade A, strain BG505)). In words: native gel or EMSA. In general terms: In EMSA bound probe runs differently from free probe, usually more slowly.
The target is the same in assay [4]. In words: SEC.
Assay [5] deals with clade B tier 3 H078.14 UFO-BG gp140 trimer (HIV-1 (clade B, strain H078.14) | HIV-1 (clade A, strain BG505)). In words: crystal structure.

As a reminder, the stoichiometry N is the number of molecules, sites or subunits per partner or assembly. In the case of “BG505 SOSIP.664 gp140 trimer (from UniProt Q2N0S6 31-505) (complex)”, the stoichiometry N in assay [1] and in assay [2] was 3 each time. Consider BG505 UFO gp140 trimer, for which the stoichiometry N in assay [3] and in assay [4] was 3 throughout.

In turn, “clade B tier 3 H078.14 UFO-BG gp140 trimer” came in with a stoichiometry N in assay [5] of 3.
